From patent US20240059799A1 (Pfizer, published 2024)

Key:
Assay in all cases: SPR, Biacore 8K+, 37 C; antibody captured by anti-human Fc, cytokine injected
rabbit IL-12 = molecular target: T1, rabbit IL-12 (rabbit)
T1 chain 1: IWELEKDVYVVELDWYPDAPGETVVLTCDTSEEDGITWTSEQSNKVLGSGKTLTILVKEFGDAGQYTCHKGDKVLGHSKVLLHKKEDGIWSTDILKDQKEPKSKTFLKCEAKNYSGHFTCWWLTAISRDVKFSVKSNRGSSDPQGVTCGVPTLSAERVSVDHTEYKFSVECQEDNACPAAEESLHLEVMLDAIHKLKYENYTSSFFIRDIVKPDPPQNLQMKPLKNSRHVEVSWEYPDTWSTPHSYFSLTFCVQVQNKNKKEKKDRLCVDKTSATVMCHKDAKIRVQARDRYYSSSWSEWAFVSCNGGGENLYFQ
T1 chain 2: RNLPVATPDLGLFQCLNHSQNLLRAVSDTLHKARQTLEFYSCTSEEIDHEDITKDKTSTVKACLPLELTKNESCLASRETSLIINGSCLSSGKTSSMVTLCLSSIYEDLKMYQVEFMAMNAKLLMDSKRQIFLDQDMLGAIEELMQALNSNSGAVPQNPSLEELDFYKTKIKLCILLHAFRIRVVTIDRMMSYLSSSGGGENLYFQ
Protocol: (§1) In order to determine binding to TL1A, kinetic assays were conducted at 37° C. using a collection rate of 10 Hz on a Biacore™ T200 instrument (GE Healthcare). […] For the analysis of the p40 binding arm, kinetic assays were conducted at 37° C. using a collection rate of 10 Hz on a Biacore™ 8 K+ instrument (GE Healthcare).

rabbit IL-23 = molecular target: T2, rabbit IL-23 (rabbit)
T2 chain 1: T1 chain 1
T2 chain 2: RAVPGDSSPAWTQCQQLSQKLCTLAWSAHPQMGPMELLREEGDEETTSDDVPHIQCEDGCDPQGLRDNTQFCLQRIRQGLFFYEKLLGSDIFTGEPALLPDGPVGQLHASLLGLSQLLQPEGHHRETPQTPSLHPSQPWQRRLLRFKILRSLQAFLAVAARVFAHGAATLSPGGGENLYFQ
Protocol: as §1

rat IL-23 = molecular target: T3, rat IL-23 (rat, UniProt P43432 23-335; Q91Z84 22-196, limits assumed)
T3 chain 1: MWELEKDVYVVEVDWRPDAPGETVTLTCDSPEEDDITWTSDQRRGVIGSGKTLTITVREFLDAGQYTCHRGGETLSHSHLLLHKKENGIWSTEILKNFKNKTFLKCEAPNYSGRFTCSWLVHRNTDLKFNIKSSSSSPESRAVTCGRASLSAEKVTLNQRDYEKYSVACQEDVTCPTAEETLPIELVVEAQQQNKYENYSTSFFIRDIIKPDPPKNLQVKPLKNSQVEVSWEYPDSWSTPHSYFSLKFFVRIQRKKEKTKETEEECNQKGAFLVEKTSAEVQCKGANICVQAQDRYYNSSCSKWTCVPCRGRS
T3 chain 2: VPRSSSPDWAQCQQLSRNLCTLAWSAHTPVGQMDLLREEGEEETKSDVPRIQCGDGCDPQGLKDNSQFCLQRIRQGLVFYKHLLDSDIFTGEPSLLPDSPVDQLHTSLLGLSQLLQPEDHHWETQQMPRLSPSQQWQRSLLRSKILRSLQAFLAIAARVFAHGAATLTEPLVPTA
Protocol: as §1

cynomolgus monkey IL-12 = molecular target: T4, cynomolgus monkey IL-12 (cynomolgus monkey)
T4 construct: also called cyno IL-12
T4 chain 1: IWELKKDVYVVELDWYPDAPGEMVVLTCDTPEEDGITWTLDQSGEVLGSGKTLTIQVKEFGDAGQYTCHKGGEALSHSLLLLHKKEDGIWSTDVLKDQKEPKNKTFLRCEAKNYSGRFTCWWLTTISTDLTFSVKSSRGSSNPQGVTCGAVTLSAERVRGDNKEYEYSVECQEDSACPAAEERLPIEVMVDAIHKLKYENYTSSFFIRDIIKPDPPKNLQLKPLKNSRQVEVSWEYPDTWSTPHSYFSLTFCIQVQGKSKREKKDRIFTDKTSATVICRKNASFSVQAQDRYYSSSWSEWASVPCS
T4 chain 2: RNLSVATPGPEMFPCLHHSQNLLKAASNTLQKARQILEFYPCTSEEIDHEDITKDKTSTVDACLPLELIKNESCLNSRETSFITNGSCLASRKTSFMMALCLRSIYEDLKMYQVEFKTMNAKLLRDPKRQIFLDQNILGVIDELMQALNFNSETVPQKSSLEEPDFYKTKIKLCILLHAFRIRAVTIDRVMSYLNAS
Protocol: as §1

human IL-12 = molecular target: T5, human IL-12 (human, UniProt P29460 23-328; P29459 23-219)
T5 construct: also called recombinant human IL-12 (p40/p35)
T5 sequence 1: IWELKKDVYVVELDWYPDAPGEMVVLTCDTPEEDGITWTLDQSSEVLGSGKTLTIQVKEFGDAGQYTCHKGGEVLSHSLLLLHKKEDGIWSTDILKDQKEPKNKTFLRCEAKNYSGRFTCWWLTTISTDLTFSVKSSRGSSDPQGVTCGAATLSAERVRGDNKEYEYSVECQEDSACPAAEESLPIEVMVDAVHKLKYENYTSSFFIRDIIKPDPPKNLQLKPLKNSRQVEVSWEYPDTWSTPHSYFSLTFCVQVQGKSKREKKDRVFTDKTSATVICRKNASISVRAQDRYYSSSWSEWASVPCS
T5 sequence 2: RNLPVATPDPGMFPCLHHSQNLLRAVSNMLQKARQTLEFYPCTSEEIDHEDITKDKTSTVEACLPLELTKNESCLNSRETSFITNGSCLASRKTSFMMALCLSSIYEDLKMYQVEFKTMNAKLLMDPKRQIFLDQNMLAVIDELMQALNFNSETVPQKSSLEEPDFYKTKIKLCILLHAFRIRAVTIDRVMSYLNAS
Protocol: as §1

rat IL-12 = molecular target: T6, rat IL-12 (rat, UniProt P43432 23-335; Q9R103 23-215, limits assumed)
T6 chain 1: T3 chain 1
T6 chain 2: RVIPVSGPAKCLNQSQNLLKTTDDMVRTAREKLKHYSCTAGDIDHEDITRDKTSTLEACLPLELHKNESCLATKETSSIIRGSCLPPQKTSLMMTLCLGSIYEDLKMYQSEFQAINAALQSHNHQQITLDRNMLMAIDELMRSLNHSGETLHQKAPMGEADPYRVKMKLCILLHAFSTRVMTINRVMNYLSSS
Protocol: as §1

binding result (rabbit IL-12): no binding (tested: 200 nM)
binding result (rabbit IL-23): no binding (tested: 200 nM)
binding result (rat IL-23): no binding (tested: 200 nM)
Kd (cynomolgus monkey IL-12): 0.267 nM
koff (cynomolgus monkey IL-12): 0.000636 s⁻¹
kon (cynomolgus monkey IL-12): 2.38e+06 M⁻¹ s⁻¹
Kd (human IL-12): 0.123 nM
koff (human IL-12): 0.000258 s⁻¹
kon (human IL-12): 2.1e+06 M⁻¹ s⁻¹
binding result (rat IL-12): no binding (tested: 200 nM)
B1: p40TL1A-0033 bispecific antibody (bispecific antibody, human IgG1, kappa)
heavy: EVQLVQSGAEVKKPGESLKISCKGSGYSFTTYWLGWVRQMPGKGLDWIGIMSPVDSDIRYSPSFQGQVTMSVDKSITTAYLQWNSLKASDTAMYYCARRRPGQGYFDFWGQGTLVTVSSASTKGPSVFPLAPSSKSTSGGTAALGCLVKDYFPEPVTVSWNSGALTSGVHTFPAVLQSSGLYSLSSVVTVPSSSLGTQTYICNVNHKPSNTKVDKKVEPKSCDKTHTCPPCPAPEAAGAPSVFLFPPKPKDTLMISRTPEVTCVVVDVSHEDPEVKFNWYVDGVEVHNAKTKPREEQYNSTYRVVSVLTVLHQDWLNGKEYKCKVSNKALPAPIEKTISKAKGQPREPQVCTLPPSREEMTKNQVSLWCLVKGFYPSDIAVEWESNGQPENNYKTTPPVLDSDGSFFLYSKLTVDKSRWQQGNVFSCSVLHEALHSHYTQKSLSLSPGK
light: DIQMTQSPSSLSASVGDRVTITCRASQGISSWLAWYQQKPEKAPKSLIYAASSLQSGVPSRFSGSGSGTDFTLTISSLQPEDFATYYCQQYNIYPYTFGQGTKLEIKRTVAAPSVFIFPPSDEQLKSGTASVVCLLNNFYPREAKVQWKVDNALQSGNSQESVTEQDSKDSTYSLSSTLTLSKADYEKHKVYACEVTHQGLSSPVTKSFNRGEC
chain 1: not shown
chain 2: QVQLVQSGAEVKKPGASVKVSCKASGYDYTYYGISWVRQAPGQGLEWMGWISTYNTGTHYAPSLQGRVTMTTDTSTSTAYMELRSLRSDDTAVYYCARESYYGSGAFRGGMDVWGQGTTVTVSSASTKGPSVFPLAPSSKSTSGGTAALGCLVKDYFPEPVTVSWNSGALTSGVHTFPAVLQSSGLYSLSSVVTVPSSSLGTQTYICNVNHKPSNTKVDKKVEPKSC
notes: Single cell KiH, modified Fd format; IgG1 effector-function-minimized Fc with LS mutations
